Reference: US20190298824A1, “ALBUMIN-BINDING IMMUNOMODULATORY COMPOSITIONS AND METHODS OF USE THEREOF” (THE UNITED STATES OF AMERICA, as represented by the …, priority 2016, published 2019)
Read-outs that look alike come from different tables or passages of the source. Values belong to the substance of their own block, whether it stands above or below them. Where no end group is shown, it is not given here.

Columns and labels:
[1] = water solubility of MEB-peptide conjugates; format: physicochemical
Description: (§1) Tyrosinase-related protein 2 (Trp2), a melanoma-associated subunit Ag, was used in this study. Trp2 with an N-terminal cysteine was conjugated with MEB to prepare albumin-binding MEB-Trp2 (denoted as AlbiTrp2). Hydrophilic MEB increased the water solubility of AlbiTrp2 relative to Trp2, and the resulting amphiphilic AlbiTrp2 self-assembled into nanoparticles in aqueous solution (FIG. 21A, 21B). […] To study LN-targeted Trp2 delivery, ^64Cu-labeled AlbiTrp2 was s.c. injected at the tail base of FVB mice for PET imaging (FIG. 22A).
(§2) Encouraged by the efficient delivery of peptide antigen, AlbiVax-based neoantigen delivery was exploited for personalized tumor immunotherapy. Adpgk, a neoantigen [ASMTN(R→M)ELM] (SEQ ID NO: 86) in MC38 (colon cancer) tumor cells^7 was used. The conjugation of hydrophilic MEB improved the water solubility of MEB-Adpgk (denoted as AlbiAdpgk).

[2] = PET imaging of 64Cu-labeled AlbiAdpgk LN delivery; format: in vivo, FVB mice
Method: FIG. 25A-25D. Representative coronal and transverse of PET images (A) at 6 h post injection and quantification (B) of AlbiAdpgk, free Adpgk, and IFA(Adpgk) in IN and AX LNs of FVB mice (n=4/group). White arrows mark the LNs. (C) Quantified biodistribution of ^64Cu-labeled AlbiAdpgk in organs by γ-counting of excised organs at 48 h post injection. (D) % ID at injection sites quantified from decay-corrected PET scans.
as §2

albumin [3] = assay: albumin binding of AlbiTrp2; settings: R^2=0.88
Description: FIG. 21A-21C. TEM (A) and AFM (B) images of albumin/AlbiTrp2 nanocomplexes. The length-height graph in (B) was shown for the marked crossline in AFM image. (C) Albumin binding of AlbiTrp2 recovered the MEB fluorescence.
as §1

[4] = PET imaging of 64Cu-labeled AlbiTrp2 LN delivery; format: in vivo, FVB mice; settings: within 3 days
Description: FIG. 22A-22B. […] White arrows mark LNs.
as §1

[5] = PET imaging of vaccine uptake in LNs of B16F10 tumor-bearing mice; format: in vivo, C57BL/6 mice
Description: FIG. 23A-23D. Representative PET images (A) and the corresponding quantification (B) showing the uptake of AlbiCpG (MEB-(HEG)2-CpG) in draining IN LNs and AX LNs of B16F10 tumor-bearing C57BL/6 mice. […] (C-D) Representative PET images (c) and the corresponding quantification (D) showing the uptake of AlbiTrp2 in LNs (IN and AX) of B16F10 tumor-bearing C57BL/6 mice. (Coro: coronal; trans: transverse; proj: projection; ID: injection dose; ID/g: ID/gram of organ weight)
For immunotherapy, C57BL/6 mice s.c. inoculated with 3×10^5 B16F10 cells were treated with AlbiCpG (2 nmole CpG equivalents)+AlbiTrp2 (20 μg) on days 6, 12, and 18 post inoculation. […] Furthermore, using a combination of multiple synergistic therapeutics can be used.

[6] = set-up: species or system BALB/c mice; settings: mouse, in vivo
Description: FIGS. 8A-8E. Biodistribution and LN retention of CpG on day3 and day5, as determined by ROI signal quantification of PET images and γ-counting of isolated organs. (A) PET quantification of the % ID of different forms of CpG in major organs on Day3. (B) Detailed PET quantification of the % ID of different forms of CpG in IN and AX LNs on Day3. (C) γ-counting quantification of the % ID/g of different forms of CpG in LNs on Day3. (D) γ-counting quantification of the % ID/g of different forms of CpG in major organs on Day5. (E) γ-counting quantification of the % ID/g of different forms of CpG in LNs on Day5. Due to signal decay over 5 days, the radioactivity was too low to be detected by PET on day5, so the % injection dose on Day5 was not determined by PET. ID: injection dose; ID/g: injection dose/gram of tissue.
The blood had less than 4% ID/g for all tested formulations. On day 5 post injection, even though the radioactivity of ^64Cu-labeled vaccines was too low to be sensitively detected by PET, the radioactivity of ex vivo organs were sensitively measured to determine the biodistribution profile (FIGS. 8D-8E).

[7] = mouse, in vivo, sc
Method: (A) Structures, formulations, and radiolabeling strategies of CpG derivatives for PET-based screening. (B) Representative coronal PET images showing FVB mice at 6 h post s.c. injection of CpG derivatives at tail base. […] White arrow heads mark IN and AX LNs. (C) Amounts of CpG derivatives in IN and AX LNs quantified from 3D-reconstructed, decay-corrected PET images (n=4-8).
Coronal (coro), transverse (trans), and 3D projection (proj) of PET images showing efficient LN-targeted delivery and whole-body distribution of MH2C over 3 days post injection. White arrow heads mark IN and AX LNs. The scale bar for 3D proj was based on the maximal signal intensity in each image. (Injection dose: 120 μCi; ID: injection dose).
Mice were s.c. injected with ^64Cu-radiolabeled AlbiCpG, followed by PET imaging to reveal its 3D biodistribution in mice over 3 days (FIG. 5B). […] Based on PET, decay-corrected radioactivity in draining inguinal (IN) LNs, and axillary (AX) LNs. LNs were quantified as the percentage of injection dose (% ID) (FIG. 5C).

[8] = test system: BMDCs and RAW264.7 macrophages; assay: ELISA of proinflammatory factors in culture medium (in vitro immunostimulation); format: cell-based
albumin [9] = assay: method not named; recovery of MEB fluorescence on albumin binding (FIG. 21C)
Target sequence in this assay (P02768 25-609): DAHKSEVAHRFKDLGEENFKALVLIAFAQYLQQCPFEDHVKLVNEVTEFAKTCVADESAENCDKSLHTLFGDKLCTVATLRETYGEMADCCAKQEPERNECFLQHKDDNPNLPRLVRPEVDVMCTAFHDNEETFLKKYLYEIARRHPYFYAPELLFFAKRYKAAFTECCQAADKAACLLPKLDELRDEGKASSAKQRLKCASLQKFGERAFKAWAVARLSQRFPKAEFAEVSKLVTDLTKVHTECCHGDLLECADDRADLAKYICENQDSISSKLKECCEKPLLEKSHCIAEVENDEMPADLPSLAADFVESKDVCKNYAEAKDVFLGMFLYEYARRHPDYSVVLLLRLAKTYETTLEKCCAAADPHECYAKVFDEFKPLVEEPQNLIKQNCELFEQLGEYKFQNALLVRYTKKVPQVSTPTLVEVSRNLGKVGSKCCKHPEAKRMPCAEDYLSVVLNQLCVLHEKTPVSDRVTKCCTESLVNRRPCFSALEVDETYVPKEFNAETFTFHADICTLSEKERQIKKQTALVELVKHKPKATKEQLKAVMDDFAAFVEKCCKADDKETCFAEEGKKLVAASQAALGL

Substance: AlbiAdpgk: MEB conjugate of Adpgk neoantigen ASMTNMELM (SEQ ID NO: 86) of MC38 (also: MEB (albumin-binding) conjugate, site not given here)
- water solubility ([1]; relative to unconjugated peptide): improved
- amount trapped at the injection sites relative to IFA(Adpgk) ([2]; PET): Significantly less
- AUC in IN and AX LNs relative to Adpgk or IFA(Adpgk) ([2]; within 2 days): 43 fold

Substance: AlbiTrp2: Trp2 peptide with N-terminal cysteine conjugated with MEB (CSVYDFFVWL)
- Kd (albumin [3]): 790 nM
- water solubility [1]: increased
- AUC in LNs relative to free Trp2 [4]: 91 fold
- delivery to LNs in tumor-bearing mice [5]: efficiently delivered to LNs except tumor draining axillary LNs

- % ID/g in inguinal LNs [6]: 8.3±4.7 % ID/g
- radioactivity density in axillary LNs [6]: 3.2±1.2 %/g
Substance: CpG 1826
- accumulation / retention in LNs [7]: no apparent accumulation in any of the LNs

Substance: MEB-GpC: MEB conjugate of control GpC ODN (TCCATGAGCTTCCTGAGCTT, SEQ ID NO: 34) (DNA, backbone and methylation of C not given here; further chemistry not fully specified)
- secretion of proinflammatory factors (ELISA) ([8]; BMDCs and RAW264.7 macrophages): did not stimulate these cells significantly more potently than the background
- immunostimulatory activity (ELISA of culture medium) ([8]; RAW264.7 macrophages, alone or premixed with HSA): inactive for immunostimulation

- Kd (albumin [9]): 790 nM
Substance: MEB-Trp2 (albumin-binding conjugate of maleimide-functionalized truncated Evans Blue with Trp2 peptide bearing an N-terminal cysteine) (from UniProt P29812 180-188)
